For test [1], the target named is T1, 4H497-AA.
T1 chain: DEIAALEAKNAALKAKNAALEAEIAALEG
Put plainly: two-hybrid library CCmax.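 Also: natural log of median RNA to DNA barcode read ratio; higher means stronger binding.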 To be noted: mean of both orientations.

Test [2] deals with T2, 4H3939-AA.
T2 chain: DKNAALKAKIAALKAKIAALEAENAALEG
As to the kind of experiment: two-hybrid library CCmax.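 Also: natural log of median RNA to DNA barcode read ratio; higher means stronger binding.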 To be noted: mean of both orientations.

Test [3] has as its target T3, 4H478-AA.
T3 chain: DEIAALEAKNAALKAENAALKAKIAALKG
As to the kind of experiment: two-hybrid library CCmax.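 Also: natural log of median RNA to DNA barcode read ratio; higher means stronger binding.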 As to conditions: mean of both orientations.

Test [4] has as its target T4, 4H2283-AA.
T4 chain: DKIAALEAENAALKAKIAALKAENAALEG
Put plainly: two-hybrid library CCmax.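 Also: natural log of median RNA to DNA barcode read ratio; higher means stronger binding.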 To be noted: mean of both orientations.

The target of test [5] is T5, 4H391-AA.
T5 chain: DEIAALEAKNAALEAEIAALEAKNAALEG
As to the kind of experiment: two-hybrid library CCmax.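 Also: natural log of median RNA to DNA barcode read ratio; higher means stronger binding.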 To be noted: mean of both orientations.

Test [6] concerns the target T6, 4H3709-AA.
T6 chain: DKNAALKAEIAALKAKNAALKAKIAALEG
As to the kind of experiment: two-hybrid library CCmax.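 Also: natural log of median RNA to DNA barcode read ratio; higher means stronger binding.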 As to conditions: mean of both orientations.

In test [7] the target is T7, 4H3446-AA.
T7 chain: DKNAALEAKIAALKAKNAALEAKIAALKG
Put plainly: two-hybrid library CCmax. As to conditions: mean of both orientations.

The target of test [8] is T8, 4H1391-AA.
T8 chain: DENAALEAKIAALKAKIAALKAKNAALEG
As to the kind of experiment: two-hybrid library CCmax. As to conditions: mean of both orientations.

The target of test [9] is T9, 4H3628-AA.
T9 chain: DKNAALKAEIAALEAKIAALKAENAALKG
Put plainly: two-hybrid library CCmax. To be noted: mean of both orientations.

Test [10] deals with T10, 4H2248-AA.
T10 chain: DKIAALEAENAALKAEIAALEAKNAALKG
Put plainly: two-hybrid library CCmax. As to conditions: mean of both orientations.

The target of test [11] is T11, 4H3102-AA.
T11 chain: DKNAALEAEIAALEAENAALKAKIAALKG
Put plainly: two-hybrid library CCmax. As to conditions: mean of both orientations.

Test [12] deals with T12, 4H2991-AA.
T12 chain: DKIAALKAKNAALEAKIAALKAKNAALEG
Put plainly: two-hybrid library CCmax. To be noted: mean of both orientations.

For test [13], the target named is T13, 4H656-AA.
T13 chain: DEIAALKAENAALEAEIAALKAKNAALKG
As to the kind of experiment: two-hybrid library CCmax. To be noted: mean of both orientations.

In test [14] the target is T14, 4H1809-AA.
T14 chain: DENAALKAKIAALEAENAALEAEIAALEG
As to the kind of experiment: two-hybrid library CCmax. To be noted: mean of both orientations.

Test [15] deals with T15, 4H2742-AA.
T15 chain: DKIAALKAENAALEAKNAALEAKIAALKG
Put plainly: two-hybrid library CCmax. As to conditions: mean of both orientations.

For test [16], the target named is T16, 4H1854-AA.
T16 chain: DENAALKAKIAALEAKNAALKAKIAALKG
As to the kind of experiment: two-hybrid library CCmax. As to conditions: mean of both orientations.

Test [17] concerns the target T17, 4H3029-AA.
T17 chain: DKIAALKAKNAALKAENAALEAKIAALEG
As to the kind of experiment: two-hybrid library CCmax. To be noted: mean of both orientations.

Test [18] has as its target T18, 4H2948-AA.
T18 chain: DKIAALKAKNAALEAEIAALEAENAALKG
As to the kind of experiment: two-hybrid library CCmax. As to conditions: mean of both orientations.

Test [19] deals with T19, 4H3417-AA.
T19 chain: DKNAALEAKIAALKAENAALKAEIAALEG
As to the kind of experiment: two-hybrid library CCmax. As to conditions: mean of both orientations.

Test [20] has as its target T20, 4H428-AA.
T20 chain: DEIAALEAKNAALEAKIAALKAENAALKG
Put plainly: two-hybrid library CCmax. To be noted: mean of both orientations.

Test [21] concerns the target T21, 4H189-AA.
T21 chain: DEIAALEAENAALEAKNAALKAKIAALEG
Put plainly: two-hybrid library CCmax.

The target in test [22] is T22, 4H3591-AA.
T22 chain: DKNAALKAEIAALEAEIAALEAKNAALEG
Put plainly: two-hybrid library CCmax. To be noted: mean of both orientations.

Test [23] has as its target T23, 4H3066-AA.
T23 chain: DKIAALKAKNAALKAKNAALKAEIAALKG
Put plainly: two-hybrid library CCmax. As to conditions: mean of both orientations.

Test [24] deals with T24, 4H3920-AA.
T24 chain: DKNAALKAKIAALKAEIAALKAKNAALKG
Put plainly: two-hybrid library CCmax. As to conditions: mean of both orientations.

Test [25] concerns the target T25, 4H2713-AA.
T25 chain: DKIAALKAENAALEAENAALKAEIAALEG
Put plainly: two-hybrid library CCmax. To be noted: mean of both orientations.

The target in test [26] is T26, 4H146-AA.
T26 chain: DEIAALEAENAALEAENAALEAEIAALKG
Put plainly: two-hybrid library CCmax.

Test [27] concerns the target T27, 4H971-AA.
T27 chain: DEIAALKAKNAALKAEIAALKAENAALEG
As to the kind of experiment: two-hybrid library CCmax.

For test [28], the target named is T28, 4H675-AA.
T28 chain: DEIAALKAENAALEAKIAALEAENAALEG
Put plainly: two-hybrid library CCmax. As to conditions: mean of both orientations.

The target in test [29] is T29, 4H3666-AA.
T29 chain: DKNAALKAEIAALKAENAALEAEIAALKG
Put plainly: two-hybrid library CCmax. To be noted: mean of both orientations.

The target of test [30] is T30, 4H1348-AA.
T30 chain: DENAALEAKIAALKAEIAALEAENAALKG
As to the kind of experiment: two-hybrid library CCmax.

Test [31] deals with T31, 4H3121-AA.
T31 chain: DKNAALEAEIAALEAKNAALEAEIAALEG
Put plainly: two-hybrid library CCmax. To be noted: mean of both orientations.

The target of test [32] is T32, P9.
T32 chain: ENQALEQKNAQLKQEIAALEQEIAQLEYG
Put plainly: two-hybrid library CC1. To be noted: mean of both orientations.

The target in test [33] is T33, P8.
T33 chain: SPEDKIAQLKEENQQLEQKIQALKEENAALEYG
Put plainly: two-hybrid library CC1. To be noted: mean of both orientations.

Test [34] addresses T34, P6.
T34 chain: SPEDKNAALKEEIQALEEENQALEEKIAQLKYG
As to the kind of experiment: two-hybrid library CC1. As to conditions: mean of both orientations.

The target of test [35] is T35, P4.
T35 chain: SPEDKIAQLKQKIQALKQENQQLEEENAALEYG
As to the kind of experiment: two-hybrid library CC1.

Test [36] addresses T36, P7mS.
T36 chain: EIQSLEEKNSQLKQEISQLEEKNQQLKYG
As to the kind of experiment: two-hybrid library CC1. To be noted: mean of both orientations.

Test [37] has as its target T37, P6SC1.
T37 chain: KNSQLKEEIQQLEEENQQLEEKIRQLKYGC
Put plainly: two-hybrid library CC1. To be noted: mean of both orientations.

In test [38] the target is T38, P5SC2.
T38 chain: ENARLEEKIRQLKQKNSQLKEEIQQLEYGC
As to the kind of experiment: two-hybrid library CC1. To be noted: mean of both orientations.

The target in test [39] is T39, P5mS.
T39 chain: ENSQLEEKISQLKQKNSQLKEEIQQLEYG
As to the kind of experiment: two-hybrid library CC1. As to conditions: mean of both orientations.

For test [40], the target named is T40, P8mS.
T40 chain: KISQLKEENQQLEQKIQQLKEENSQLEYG
As to the kind of experiment: two-hybrid library CC1. As to conditions: mean of both orientations.

The target of test [41] is T41, P4mS.
T41 chain: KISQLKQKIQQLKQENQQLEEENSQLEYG
As to the kind of experiment: two-hybrid library CC1. To be noted: mean of both orientations.

Test [42] concerns the target T42, P6SC2.
T42 chain: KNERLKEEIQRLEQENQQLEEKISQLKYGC
As to the kind of experiment: two-hybrid library CC1. As to conditions: mean of both orientations.

The target of test [43] is T43, P5.
T43 chain: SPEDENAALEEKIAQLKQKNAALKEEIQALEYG
As to the kind of experiment: two-hybrid library CC1. As to conditions: mean of both orientations.

The target of test [44] is T44, P5SC1.
T44 chain: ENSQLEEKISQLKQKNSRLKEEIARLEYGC
As to the kind of experiment: two-hybrid library CC1. To be noted: mean of both orientations.

Test [45] concerns the target T45, P7.
T45 chain: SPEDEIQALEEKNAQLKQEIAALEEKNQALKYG
Put plainly: two-hybrid library CC1. As to conditions: mean of both orientations.

Test [46] concerns the target T46, P6mS.
T46 chain: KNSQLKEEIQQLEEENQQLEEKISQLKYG
Put plainly: two-hybrid library CC1. As to conditions: mean of both orientations.

As to DENAALEAKIAALKAEIAALEAENAALKG [4H1348-AA], the interaction score is -2.02 in test [1]; 0.262 in test [2]; 0.507 in test [3]; -1.14 in test [4]; -1.94 in test [5]; -1.57 in test [6]. Besides, the interaction score is -1.25 in test [7]; -0.755 in [8]; 2.05 in test [9]; -1.37 in test [10]; -1.34 in test [11]; -1.75 in [12]. Further, the interaction score in [13] was -0.833; in test [14] it was -1.86; in test [15], -1.31; in [16], -1.01; in test [17] it was -1.57; in [18], -1.13. Besides, the interaction score in test [19] is -1.13; in [20] it was -0.542; in test [21], -1.2; in [22] it was 0.665; in test [23], -2.16; in test [24], 1.37. The interaction score in test [25] was -1.2; in test [26], -2.73; in test [27], -1.78; in [28], -1.36; in [29], -1.46; in test [30], 1.56. The interaction score in test [31] was -1.43.

SPEDKIAQLKQKIQALKQENQQLEEENAALEYG [P4]: the interaction score in [32] is -2.29; in [33], -2.99; in test [34], -2.83; in test [35] it was -3; in test [36], -2.77; in test [37], -2.87. Also, the interaction score in [38] is -2.74; in test [39], -2.91; in test [40], -2.82; in test [41], -2.91; in test [42], -2.66; in test [43], -3.06. Also, the interaction score in [44] was -2.83; in [45], -2.74; in test [46], -2.85.
